Data published in paper PMC2686266.

Target: the mutant kinases (GST-fused NIK1 kinase domains with single and double amino acid replacements in the A-loop, except T474D)

B1: His-tagged nuclear shuttle protein (NSP) of Cabbage leaf curl virus (CaLCuV), Q96706 1-256 (natural protein)
chain: MYPTKFRRGVSYSQRRFVSRNQSSKRGTFVRRTDGKRRKGPSSKAHDEPKMKLQRIHENQYGPEFVMTHNSALSTFINFPVLGKIEPNRSRSYIKLNRLSFKGTVKIERVHADVNMDGVISKIEGVFSLVIVVDRKPHLSSTGGLHTFDEIFGARIHSHGNLAITPGLKDRYYVLHVLKRVLSVEKDTLMVDLEGSTTISNRRYNCWASFNDLEHDLCNGVYANISKNAILVYYCWMSDAMSKASTFVSYDLDYLG
For B1, the further reduction of the residual autophosphorylation activity of the mutant kinases in vitro in the presence of GST-NSP was 50 to 70%.
